Experiments:
Cyno Cadherin-19 = target: T1, Cyno Cadherin-19 (cynomolgus monkey (Macaca fascicularis), UniProt Q9H159 44-772 (human entry)); experiment: FACS, recombinant cyno CDH19
T1 construct: also called cyno CDH19; cynomologous CDH-19
T1 chain: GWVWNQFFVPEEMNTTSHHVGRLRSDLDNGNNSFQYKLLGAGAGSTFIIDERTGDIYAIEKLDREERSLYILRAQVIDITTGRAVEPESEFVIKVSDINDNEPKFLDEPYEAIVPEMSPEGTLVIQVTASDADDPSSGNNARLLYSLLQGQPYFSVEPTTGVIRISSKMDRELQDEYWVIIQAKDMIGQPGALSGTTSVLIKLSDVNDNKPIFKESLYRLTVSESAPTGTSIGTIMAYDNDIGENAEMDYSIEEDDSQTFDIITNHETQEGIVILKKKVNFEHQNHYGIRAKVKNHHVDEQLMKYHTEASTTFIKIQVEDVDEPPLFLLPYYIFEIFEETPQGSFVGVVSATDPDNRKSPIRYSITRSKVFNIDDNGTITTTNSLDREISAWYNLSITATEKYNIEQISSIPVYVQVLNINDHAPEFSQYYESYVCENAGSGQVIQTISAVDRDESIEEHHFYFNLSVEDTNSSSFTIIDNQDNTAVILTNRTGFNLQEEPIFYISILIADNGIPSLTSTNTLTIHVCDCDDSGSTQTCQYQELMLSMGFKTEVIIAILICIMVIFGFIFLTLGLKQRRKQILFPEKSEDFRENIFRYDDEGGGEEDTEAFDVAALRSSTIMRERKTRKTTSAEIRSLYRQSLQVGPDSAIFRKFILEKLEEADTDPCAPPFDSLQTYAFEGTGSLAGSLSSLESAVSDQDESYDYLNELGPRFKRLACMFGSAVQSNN

Human Cadherin-19 [1] = target: T2, Human Cadherin-19 (human, UniProt Q9H159 44-772); experiment: FACS, endogenous CDH19 on tumor cells and 293/CDH-19 transfectants
T2 construct: Residues 1-43 are named as the native leader in the construct designations and are left out; also called human CDH19; huCDH19
Method: (§1) FACS binding assays were performed to evaluate the binding of the anti-Cadherin-19 receptor specific antibodies to endogenous Cadherin-19 receptor expressed on the CHL-1 tumor cell lines.
(§2) FACs assays were performed by incubating hybridoma supernatants with 10,000 to 25,000 cells in PBS/2% Fetal bovine serum/2 mM Calcium Chloride at 4° C. for one hour followed by two washes with PBS/2% Fetal bovine serum/2 mM Calcium Chloride. Cells were then treated with florochrome-labeled secondary antibodies at 4° C. followed by one wash. The cells were resuspended in 50 μl of PBS/2% FBS and antibody binding was analyzed using a FACSCalibur™ instrument.

[2] = target: T3, muCDH19(44-247)::huCDH19(250-364)::muCDH19(363-770), Flag-tagged, on 293T cells (human/mouse chimera); experiment: FACS, transfected 293T
T3 construct: also called Hu EC3; C137911
From the text: (§3) The experiment included assaying the anti-CDH19 antibodies against mouse Cadherin19 to determine suitability for binning on these human/mouse chimeras.

[3] = target: T4, huCDH19(44-772), Flag-tagged, on 293T cells (human, UniProt Q9H159 44-772); experiment: FACS, transfected 293T
T4 construct: Expressed with native leader (1-43) followed by a Flag tag; leader left out; also called Hu EC1-5
From the text: as §3

[4] = target: T5, muCDH19(44-139)::huCDH19(142-364)::muCDH19(363-770), Flag-tagged, on 293T cells (human/mouse chimera); experiment: FACS, transfected 293T
T5 construct: also called Hu EC2-3; C137847
From the text: as §3

[5] = target: T6, muCDH19(44-362)::huCDH19(365-772), Flag-tagged, on 293T cells (human/mouse chimera); experiment: FACS, transfected 293T
T6 construct: also called Hu EC4-5; C137917
T6 chain: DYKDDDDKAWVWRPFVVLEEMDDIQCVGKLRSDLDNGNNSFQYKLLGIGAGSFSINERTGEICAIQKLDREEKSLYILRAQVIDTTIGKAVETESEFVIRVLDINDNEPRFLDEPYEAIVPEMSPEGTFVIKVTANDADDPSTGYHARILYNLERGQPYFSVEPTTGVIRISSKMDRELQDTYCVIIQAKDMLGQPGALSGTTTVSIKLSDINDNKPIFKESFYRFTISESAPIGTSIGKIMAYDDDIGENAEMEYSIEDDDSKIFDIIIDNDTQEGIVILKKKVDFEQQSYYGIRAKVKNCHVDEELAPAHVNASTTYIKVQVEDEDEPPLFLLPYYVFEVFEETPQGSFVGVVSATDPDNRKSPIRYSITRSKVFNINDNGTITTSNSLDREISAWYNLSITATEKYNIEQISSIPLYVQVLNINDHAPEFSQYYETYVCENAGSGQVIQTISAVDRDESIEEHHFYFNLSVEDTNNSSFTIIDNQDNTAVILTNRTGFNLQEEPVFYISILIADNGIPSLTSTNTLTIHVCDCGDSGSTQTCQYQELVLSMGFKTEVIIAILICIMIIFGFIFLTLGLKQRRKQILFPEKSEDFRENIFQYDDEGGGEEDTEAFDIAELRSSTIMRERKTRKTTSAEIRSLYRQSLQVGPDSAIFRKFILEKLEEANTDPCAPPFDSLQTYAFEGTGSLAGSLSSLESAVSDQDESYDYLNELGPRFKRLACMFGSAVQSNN
From the text: as §3

[6] = target: T7, huCDH19(44-141)::muCDH19(140-770), Flag-tagged, on 293T cells (human/mouse chimera); experiment: FACS, transfected 293T
T7 construct: also called Hu EC1
From the text: as §3

[7] = target: T8, muCDH19(44-770), Flag-tagged, on 293T cells (mouse); experiment: FACS, transfected 293T
T8 construct: also called Mu EC1-5
T8 chain: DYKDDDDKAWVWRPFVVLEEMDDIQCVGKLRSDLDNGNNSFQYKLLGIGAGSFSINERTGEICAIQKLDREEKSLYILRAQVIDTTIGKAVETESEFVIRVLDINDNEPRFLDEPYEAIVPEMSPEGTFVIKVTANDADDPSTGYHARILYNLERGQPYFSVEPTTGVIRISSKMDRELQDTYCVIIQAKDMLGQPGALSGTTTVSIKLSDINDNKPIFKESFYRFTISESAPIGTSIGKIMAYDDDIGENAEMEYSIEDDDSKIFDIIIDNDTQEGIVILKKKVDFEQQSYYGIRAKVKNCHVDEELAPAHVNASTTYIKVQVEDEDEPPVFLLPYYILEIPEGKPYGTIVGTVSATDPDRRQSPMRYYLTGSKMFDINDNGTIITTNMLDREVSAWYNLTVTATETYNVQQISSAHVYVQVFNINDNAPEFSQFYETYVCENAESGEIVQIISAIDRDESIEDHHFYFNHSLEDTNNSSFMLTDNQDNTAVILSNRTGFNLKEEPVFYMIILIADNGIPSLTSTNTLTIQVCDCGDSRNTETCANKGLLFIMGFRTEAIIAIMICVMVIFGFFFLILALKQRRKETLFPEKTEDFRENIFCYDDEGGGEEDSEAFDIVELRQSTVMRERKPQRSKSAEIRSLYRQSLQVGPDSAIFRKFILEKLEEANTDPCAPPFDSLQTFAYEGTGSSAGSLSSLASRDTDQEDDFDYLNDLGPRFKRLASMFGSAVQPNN
From the text: as §3

[8] = target: T9, muCDH19(44-139)::huCDH19(142-249)::muCDH19(248-770), Flag-tagged, on 293T cells (human/mouse chimera); experiment: FACS, transfected 293T
T9 construct: also called Hu EC2; C137913
T9 chain: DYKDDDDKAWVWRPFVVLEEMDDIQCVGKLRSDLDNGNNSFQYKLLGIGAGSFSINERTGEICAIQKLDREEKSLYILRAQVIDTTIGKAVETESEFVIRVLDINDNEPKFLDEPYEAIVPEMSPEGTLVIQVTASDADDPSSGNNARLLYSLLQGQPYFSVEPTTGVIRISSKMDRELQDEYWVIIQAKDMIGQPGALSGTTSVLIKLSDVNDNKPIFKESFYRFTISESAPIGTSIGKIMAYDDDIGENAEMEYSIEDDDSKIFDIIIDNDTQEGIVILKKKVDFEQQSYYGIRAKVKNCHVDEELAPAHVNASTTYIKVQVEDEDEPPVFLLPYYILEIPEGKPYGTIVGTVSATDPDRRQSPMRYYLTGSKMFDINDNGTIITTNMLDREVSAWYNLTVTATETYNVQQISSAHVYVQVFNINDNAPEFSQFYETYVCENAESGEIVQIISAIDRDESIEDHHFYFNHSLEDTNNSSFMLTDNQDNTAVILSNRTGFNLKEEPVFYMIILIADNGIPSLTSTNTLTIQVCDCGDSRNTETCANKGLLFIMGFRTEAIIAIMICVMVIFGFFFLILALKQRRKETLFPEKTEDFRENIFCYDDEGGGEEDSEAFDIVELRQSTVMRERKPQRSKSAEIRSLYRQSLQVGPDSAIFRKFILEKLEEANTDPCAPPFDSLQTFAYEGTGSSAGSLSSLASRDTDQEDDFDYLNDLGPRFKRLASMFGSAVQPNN
From the text: as §3

[9] = target: T10, muCDH19(44-461)::huCDH19(464-772), Flag-tagged, on 293T cells (human/mouse chimera); experiment: FACS, transfected 293T
T10 construct: also called Hu EC5; C137915
T10 chain: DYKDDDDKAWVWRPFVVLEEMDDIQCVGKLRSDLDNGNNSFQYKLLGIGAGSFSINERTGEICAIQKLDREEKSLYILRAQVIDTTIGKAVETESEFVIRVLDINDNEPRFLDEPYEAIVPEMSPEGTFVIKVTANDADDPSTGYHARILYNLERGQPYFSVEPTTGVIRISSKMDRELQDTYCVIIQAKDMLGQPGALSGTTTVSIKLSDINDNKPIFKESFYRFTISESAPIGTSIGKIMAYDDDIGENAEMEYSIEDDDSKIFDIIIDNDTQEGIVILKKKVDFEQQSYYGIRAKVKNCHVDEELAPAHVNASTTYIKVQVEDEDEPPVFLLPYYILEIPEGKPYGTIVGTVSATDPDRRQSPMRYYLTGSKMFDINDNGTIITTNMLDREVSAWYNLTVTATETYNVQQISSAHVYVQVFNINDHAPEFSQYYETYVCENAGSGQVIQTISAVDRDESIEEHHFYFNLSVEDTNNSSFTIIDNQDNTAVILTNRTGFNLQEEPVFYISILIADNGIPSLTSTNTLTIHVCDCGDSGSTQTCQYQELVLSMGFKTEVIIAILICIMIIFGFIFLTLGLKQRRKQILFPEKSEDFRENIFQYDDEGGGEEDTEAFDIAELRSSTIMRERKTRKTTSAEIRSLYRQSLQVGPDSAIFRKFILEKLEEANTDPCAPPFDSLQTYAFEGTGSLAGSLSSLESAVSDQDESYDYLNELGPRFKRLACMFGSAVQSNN
From the text: as §3

[10] = target: T11, huCDH19(44-249)::muCDH19(248-770), Flag-tagged, on 293T cells (human/mouse chimera); experiment: FACS, transfected 293T
T11 construct: also called Hu EC1-2; C137896
From the text: as §3

Human Cadherin-19 [11] = target: T2, Human Cadherin-19; experiment: FACS, endogenous and recombinant human CDH19
Method: as §1, §2

Measured: binding result

B1: hu anti-<huCDH19> 22G10.1 VH::huIgG1z / 22G10.1 VL::huKLC (Ab ID 13877) (antibody, V domains shown)
VH: EVQLLESGGGLVQPGGSLRLSCAASGFTFSSYAMNWVRQAPGKGLEWVSTISGGGANTYYADSVKGRFTISSDNSKSTLYLQMNSLRAADTAVYHCAKGGMGGYYYGMDVWGQGTTVTVSS
VL: EIVMTQSPVTLSLSLGERATLSCRASQSISSNLAWFQQKPGQAPRLLIYGAFTRATGIPARVSGSGSGTEFTLTISSLQSEDFAVYYCQQYNYWPLTFGGGTKVEIKR
binds: Cyno Cadherin-19 | Human Cadherin-19 [1]

B2: hu anti-<huCDH19> 4A2 (1-472)(Q17E,H47P) VH::huIgG1z / 4A2 (1-236)(N30Q,T102A) VL::huKLC (Ab ID 14026) (antibody, V domains shown)
VH: QVQLQESGPGLVKPSETLSLTCTVSGGSISSSGYYWSWIRQPPGKGLEWIGYIYYTGSAYYNPSLKSRVTISVDTSKNQFSLKLSSVTAADTAVYYCARDGSSGWYFQYWGQGTLVTVSS
VL: EIVLTQSPGTLSLSPGERATLSCRASRQISSSYLAWYQQKPGQAPRLLIYGPSSRATGIPDRFSGSGSGTDFTLTISRLEPEDFAVYYCQQYGSSFTFGPGTKVDIKR
notes: Engineered variant of 4A2
binds: [2] | [3] | [4]

B3: hu anti-<huCDH19> 2G6 (1-477)(R17G,D61E,D72E,K94N) VH::huIgG1z / 2G6 (1-234)(C42S,D110E) VL::huLLC-C1 (Ab ID 14039) (antibody, V domains shown)
VH: QVQLVESGGGVVQPGGSLRLSCAASGFTFSSYGMHWVRQAPGKGLEWVAFIWYEGSNKYYAESVKDRFTISRDNSKNTLYLQMNSLRAEDTAVYYCARRAGIIGTIGYYYGMDVWGQGTTVTVSS
VL: SYELTQPPSVSVSPGQTASITCSGDRLGEKYTSWYQQRPGQSPLLVIYQDTKRPSGIPERFSGSNSGNTATLTISGTQAMDEADYYCQAWESSTVVFGGGTKLTVLG
notes: Engineered variant of 2G6
not listed: Cyno Cadherin-19 | Human Cadherin-19 [1] | Human Cadherin-19 [11]
binds: all other assays above

B4: anti-CDH19 antibody 23A10 (Ab ID 13884) (antibody, human IgG1, lambda, V domains shown)
VH: QVQLVESGGGVVQPGRSLRLSCAASGFTFSRYGIHWVRQAPGKGLEWVAVIWYDGSNKYYADSVKGRFTISRDNSKNTLYLLMNSLRAEDSAVYYCARRAGIPGTTGYYYGMDVWGQGTTVTVSS
VL: SYELTQPPSVSVSPGQTASITCSGDRLGEKYVCWYQQKPGQSPILVIYQDNKWPSGIPERFSGSNSGNTATLTISGTQAMDEADYYCQAWDSSTVVFGGGTKLTVLG
binds: Human Cadherin-19 [11] | Cyno Cadherin-19

— patent publication US20140322218A1 (Amgen, published 2014)
